Reference: article PMC2288870

What was measured:
[1] = target: 50-kD chymotryptic fragment of thrombospondin (human); assay: non-reducing SDS-PAGE
[2] = target: 70-kD chymotryptic fragment of thrombospondin (human); assay: non-reducing SDS-PAGE

Row | Substance | stoichiometry N [1] | stoichiometry N [2]
1 | 50-kD chymotryptic fragment of thrombospondin (domain or fragment) | 3 | –
2 | 70-kD chymotryptic fragment of thrombospondin (domain or fragment) | – | 3
